Data reported in patent publication US20260125454A1 (SHANGHAI JUNSHI BIOSCIENCES, published 2026).
Substitutions are numbered along the chain they refer to.

B1: hu14 (antibody, V domains shown)
VH: QVQLVQSGAEVKKPGASVKVSCKASGYTFTDYNMHWVRQAPGQRLEWMGYIFPYNGVAVYNRKFRSRVTLTVDTSSSTAYMELSSLRSEDTAVYYCAREGLGGYWGQGTLVTVSS
VL: DIVLTQSPASLAVSPGQRATITCKASQNIDYDGYAYLNWYQQKPGQPPKVLIYSVFNLESGVPARFSGSGSGTDFTLTINPVEANDTANYYCQQSNEFPYTFGQGTKLEIK
notes: 1B2 HC-2/1A2 LC2-1
B2: hu213 (antibody, V domains shown)
VH: B1 VH with R44G, F52Y, V57H, A58T, R62Q, S66N, S84R, E89D
VL: EIVLTQSPATLSLSPGERATLSCKASQNIDFDGYAYMNWYQQKPGQAPRVLIYSVFNLESGIPARFSGSGSGTDFTLTISSLEPEDFAVYYCQQSHEVPYTFGQGTKLEIK
notes: 3H10 HC-2/1F5 LC1-1
B3: hu15 (antibody, V domains shown)
VH: B1 VH
VL: B1 VL with N85D
notes: 1B2 HC-2/1A2 LC2-2
B4: hu196 (antibody, V domains shown)
VH: B1 VH with R44G, F52Y, V57H, A58T, R62Q, S66N, L70M, S84R, E89D, R98K
VL: B1 VL
notes: 3H10 HC-1/1A2 LC2-1
B5: hu20 (antibody, V domains shown)
VH: B1 VH
VL: B1 VL with Y31F, L37M, N85D, N96H, F98V
notes: 1B2 HC-2/1F5 LC1-3
B6: hu53 (antibody, V domains shown)
VH: QVQLVQSGAEVKKPGASVKVSCKASGYTFTDFNMHWVRQAPGQGLEWMGYIYPYNGDVVYNQNFTNRVTLTVDTSSSTAYMELRSLRSDDTAVYYCAREGLGGYWGQGTLVTVSS
VL: B1 VL
notes: 1F5 HC-3/1A2 LC2-1
B7: hu79 (antibody, V domains shown)
VH: B6 VH with T30I, G44R, G56A, N63D, R84S, D89E
VL: B1 VL
notes: 1F5 HC-5/1A2 LC2-1
B8: hu27 (antibody, V domains shown)
VH: B6 VH with T30I, G44R, R84S, D89E
VL: B1 VL
notes: 1F5 HC-1/1A2 LC2-1
B9: hu3 (antibody, V domains shown)
VH: B1 VH with R44G, V72I, S84R, E89D
VL: B2 VL with F31Y, M37L, H96N, V98F
notes: 1B2 HC-1/1A2 LC2-3
B10: hu111 (antibody, V domains shown)
VH: B6 VH with F32Y, Y50N, D57G, V58T, N63K, T65N, R84S, S85R
VL: B1 VL with Y31F, L37M, N85D, N96H, F98V
notes: 2B8 HC1-1/1F5 LC1-3
B11: hu157 (antibody, V domains shown)
VH: B1 VH with F52S, V57G, A58T, V59A, R62Q, R65K, S66F
VL: B1 VL
notes: 3E5 HC-2/1A2 LC2-1
B12: hu93 (antibody, V domains shown)
VH: B1 VH with I51V, F52Y, V57G, A58S, V59A, R62Q, R65K
VL: B1 VL with N85D
notes: 2A2 HC-1/1A2 LC2-2
B13: hu105 (antibody, V domains shown)
VH: B6 VH with F32Y, Y50N, D57G, V58T, N63K, T65N, R84S, S85R
VL: B1 VL
notes: 2B8 HC1-1/1A2 LC2-1
B14: hu158 (antibody, V domains shown)
VH: B1 VH with F52S, V57G, A58T, V59A, R62Q, R65K, S66F
VL: B1 VL with N85D
notes: 3E5 HC-2/1A2 LC2-2
B15: hu170 (antibody, V domains shown)
VH: QVQLVQSGAEVKKPGASVKVSCKASGYTFTDYNMHWVRQAPGQGLEWMGYISPYNGGTAYNQKFKFRVTLTVDTSSSTAYMELSRLRSDDTVVYYCAREGLGGYWGQGTLVTVSS
VL: B1 VL
notes: 3E5 HC-3/1A2 LC2-1
B16: hu215 (antibody, V domains shown)
VH: B6 VH with F32Y, D57H, V58T, N63K, T65R
VL: B1 VL with Y31F, L37M, N85D, N96H, F98V
notes: 3H10 HC-2/1F5 LC1-3
B17: hu171 (antibody, V domains shown)
VH: B15 VH
VL: B1 VL with N85D
notes: 3E5 HC-3/1A2 LC2-2
B18: hu54 (antibody, V domains shown)
VH: B6 VH
VL: B1 VL with N85D
notes: 1F5 HC-3/1A2 LC2-2
B19: hu197 (antibody, V domains shown)
VH: B6 VH with F32Y, D57H, V58T, N63K, T65R, L70M, R98K
VL: B1 VL with N85D
notes: 3H10 HC-1/1A2 LC2-2
B20: hu183 (antibody, V domains shown)
VH: B15 VH with A24T, G44R, G56A, R85S, D89E, V92A
VL: B1 VL
notes: 3E5 HC-4/1A2 LC2-1
B21: hu40 (antibody, V domains shown)
VH: B6 VH with G44R, R84S, D89E
VL: B1 VL
notes: 1F5 HC-2/1A2 LC2-1
B22: hu118 (antibody, V domains shown)
VH: B6 VH with F32Y, Y50N, D57G, V58T, N63K, T65N
VL: B1 VL
notes: 2B8 HC1-2/1A2 LC2-1
B23: hu92 (antibody, V domains shown)
VH: B1 VH with I51V, F52Y, V57G, A58S, V59A, R62Q, R65K
VL: B1 VL
notes: 2A2 HC-1/1A2 LC2-1
B24: hu137 (antibody, V domains shown)
VH: B15 VH with Y50N, S52Y, G56A, A59V, K65N, F66N, V92A
VL: B1 VL with Y31F, L37M, N85D, N96H, F98V
notes: 2B8 HC1-3/1F5 LC1-3
B25: hu163 (antibody, V domains shown)
VH: B15 VH with G44R, R85S, D89E, V92A
VL: B1 VL with Y31F, L37M, N85D, N96H, F98V
notes: 3E5 HC-2/1F5 LC1-3
B26: hu41 (antibody, V domains shown)
VH: B6 VH with G44R, R84S, D89E
VL: B1 VL with N85D
notes: 1F5 HC-2/1A2 LC2-2
B27: hu106 (antibody, V domains shown)
VH: B15 VH with Y50N, S52Y, A59V, K65N, F66N, V92A
VL: B1 VL with N85D
notes: 2B8 HC1-1/1A2 LC2-2
B28: hu184 (antibody, V domains shown)
VH: B15 VH with A24T, G44R, G56A, R85S, D89E, V92A
VL: B1 VL with N85D
notes: 3E5 HC-4/1A2 LC2-2
B29: hu28 (antibody, V domains shown)
VH: B6 VH with T30I, G44R, R84S, D89E
VL: B1 VL with N85D
notes: 1F5 HC-1/1A2 LC2-2
B30: hu202 (antibody, V domains shown)
VH: B6 VH with F32Y, D57H, V58T, N63K, T65R, L70M, R98K
VL: B1 VL with Y31F, L37M, N85D, N96H, F98V
notes: 3H10 HC-1/1F5 LC1-3
B31: hu209 (antibody, V domains shown)
VH: B6 VH with F32Y, D57H, V58T, N63K, T65R
VL: B1 VL
notes: 3H10 HC-2/1A2 LC2-1
B32: hu80 (antibody, V domains shown)
VH: B6 VH with T30I, G44R, G56A, N63D, R84S, D89E
VL: B1 VL with N85D
notes: 1F5 HC-5/1A2 LC2-2
B33: hu124 (antibody, V domains shown)
VH: B6 VH with F32Y, Y50N, D57G, V58T, N63K, T65N
VL: B1 VL with Y31F, L37M, N85D, N96H, F98V
notes: 2B8 HC1-2/1F5 LC1-3
B34: hu144 (antibody, V domains shown)
VH: B15 VH with A24T, G44R, R85S, D89E, V92A
VL: B1 VL
notes: 3E5 HC-1/1A2 LC2-1
B35: hu119 (antibody, V domains shown)
VH: B6 VH with F32Y, Y50N, D57G, V58T, N63K, T65N
VL: B1 VL with N85D
notes: 2B8 HC1-2/1A2 LC2-2
B36: hu5 (antibody, V domains shown)
VH: B1 VH with R44G, V72I, S84R, E89D
VL: B2 VL
notes: 1B2 HC-1/1F5 LC1-1
B37: hu132 (antibody, V domains shown)
VH: B15 VH with Y50N, S52Y, G56A, A59V, K65N, F66N, V92A
VL: B1 VL with N85D
notes: 2B8 HC1-3/1A2 LC2-2
B38: hu46 (antibody, V domains shown)
VH: B6 VH with G44R, R84S, D89E
VL: B1 VL with Y31F, L37M, N85D, N96H, F98V
notes: 1F5 HC-2/1F5 LC1-3
B39: hu59 (antibody, V domains shown)
VH: B6 VH
VL: B1 VL with Y31F, L37M, N85D, N96H, F98V
notes: 1F5 HC-3/1F5 LC1-3
B40: hu176 (antibody, V domains shown)
VH: B15 VH
VL: B1 VL with Y31F, L37M, N85D, N96H, F98V
notes: 3E5 HC-3/1F5 LC1-3

Target: T1, Biotin-huCGRPaSA (human, not fully specified; biotin (position not given))
T1 construct: exact construct ('aSA') not explained; also called Biotin CGRPaSA; full-length (1-37) CGRP
T1 peptide: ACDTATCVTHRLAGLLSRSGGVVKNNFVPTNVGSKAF
Test: ELISA, supernatant; relative to chimeric C245
Method: Biotin CGRPaSA was diluted with PBS (Hyclone) to 1.0 μg/mL, and the dilution was added to a microplate at 100 μL/well. The plate was let stand in an incubator at 37° C. and coated for 90 min and then washed, and 2% BSA was added to the plate at 200 μL/well. The plate was incubated in an incubator at 37° C. for 90 min and then washed. The humanized antibodies in Table 8 and the reference antibody (chimeric antibody C245) were diluted to 1000 ng/mL with a diluent (2% BSA) with a dilution factor of not more than 10. Then, the chimeric antibodies and the reference antibody were serially 2.5-fold diluted on a sample dilution plate. All the chimeric antibody solutions and the reference antibody solution were added into plates at 100 μL/well, and the plates were incubated in a thermostat incubator at 37° C. for 60 min and washed. An HRP-conjugated goat anti-human antibody IgG (manufacturer: Sigma, Cat. No. A0170; Fc specificity) was diluted 5000-fold with 2% BSA and added into the plates at 100 μL/well, and the plates were incubated in the thermostat incubator at 37° C. for 60 min and washed. Chromogenic reagent TMB was carefully added at 100 μL/well to avoid bubbles, and the system was incubated at 37° C. for 15 min away from light for chromogenic reaction. Finally, a 2 M hydrochloric acid solution was added at 100 μL/well to stop the reaction while avoiding bubbles, and the plates were read on a microplate reader within 10 min (wavelength: 450/620 nm).

Point of comparison: B7, “Relative binding activity, %” value 80%. Against it:
- B1 — lower, 32%
- B2 — lower, 38%
- B3 — lower, 44%
- B4 — lower, 45%
- B5 — lower, 40%
- B6 — lower, 13%
- B8 — lower, 28%
- B9 — lower, 41%
- B10 — lower, 46%
- B11 — lower, 15%
- B12 — lower, 45%
- B13 — lower, 31%
- B14 — lower, 71%
- B15 — lower, 75%
- B16 — higher, 94%
- B17 — lower, 63%
- B18 — lower, 22%
- B19 — lower, 49%
- B20 — lower, 26%
- B21 — lower, 49%
- B22 — lower, 60%
- B23 — lower, 32%
- B24 — higher, 93%
- B25 — lower, 78%
- B26 — lower, 61%
- B27 — lower, 38%
- B28 — lower, 23%
- B29 — lower, 71%
- B30 — higher, 90%
- B31 — lower, 64%
- B32 — higher, 99%
- B33 — higher, 96%
- B34 — higher, 101%
- B35 — lower, 51%
- B36 — higher, 88%
- B37 — higher, 108%
- B38 — lower, 25%
- B39 — lower, 70%
- B40 — lower, 65%
